Kd data for 2 substances are collected here from PMC2782912.

The target of assay [1] is HIV-1 capsid protein C-terminal domain, CA-CTD (Met144-Leu231) (HIV-1). The experiment in a line: NMR titration.
Assay [2] deals with HIV-1 capsid protein CA (Human immunodeficiency virus 1) (UniProt O93182). The settings on record: cited from earlier work.

Chain of HIV-1 capsid protein CA (O93182 133-363): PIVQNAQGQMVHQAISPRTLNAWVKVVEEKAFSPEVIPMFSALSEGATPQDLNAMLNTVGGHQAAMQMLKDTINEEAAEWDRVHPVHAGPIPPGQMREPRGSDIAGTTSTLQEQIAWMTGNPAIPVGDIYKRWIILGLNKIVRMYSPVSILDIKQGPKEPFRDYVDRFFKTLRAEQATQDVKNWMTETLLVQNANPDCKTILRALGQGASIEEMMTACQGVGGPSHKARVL

In assay [1], “HIV-1 capsid protein C-terminal domain, CA-CTD (Met144-Leu231) (domain or fragment)” registered a Kd of 9.8 µM. Regarding “HIV-1 capsid protein CA (from UniProt O93182)”, the Kd in assay [2] was 18 µM.

As usually defined, the Kd is the equilibrium constant for the complex coming apart.
